Ends that are not written are not given here.
B1: RRAPGKLTCLASYCWLF WSGIA PQPPNMRPSV (peptide)
peptide: RRAPGKLTCLASYCWLFWSGIAPQPPNMRPSV
B2: RRAPGCLTALASYAWLCWTGIA-COOH (peptide)
peptide: RRAPGCLTALASYAWLCWTGIA-OH
modifications: cysteine pairing not given here
B3: RRAPGKLTCLASYCWLF WTTWT TAPTTPPLTT (peptide)
peptide: RRAPGKLTCLASYCWLFWTTWTTAPTTPPLTT
B4: RRAPGCLTALASYCWLFWTGIA-CONH2 (peptide)
peptide: RRAPGCLTALASYCWLFWTGIA-NH2
modifications: cysteine pairing not given here
B5: SKQGRPISPDRRAAGKLTCLASYCWLFGSGISLSRAPESAAP (peptide)
peptide: SKQGRPISPDRRAAGKLTCLASYCWLFGSGISLSRAPESAAP
B6: RRAPGKLTCLASYAWLCWTGIA-CONH2 (peptide)
peptide: RRAPGKLTCLASYAWLCWTGIA-NH2
modifications: cysteine pairing not given here
B7: RRAPGKLCALASYCWLFWTGIA-COOH (peptide)
peptide: RRAPGKLCALASYCWLFWTGIA-OH
modifications: cysteine pairing not given here
B8: RRAPGKLCALASYACLFWTGIA-COOH (peptide)
peptide: RRAPGKLCALASYACLFWTGIA-OH
modifications: cysteine pairing not given here
B9: RRAPGKLTCLASYAWCFWTGIA-CONH2 (peptide)
peptide: RRAPGKLTCLASYAWCFWTGIA-NH2
modifications: cysteine pairing not given here
B10: RRAPGKLCALASYACLFWTGIA-CONH2 (peptide)
peptide: RRAPGKLCALASYACLFWTGIA-NH2
modifications: cysteine pairing not given here
B11: RRAPGKLTCLASYAWLCWTGIA-COOH (peptide)
peptide: RRAPGKLTCLASYAWLCWTGIA-OH
modifications: cysteine pairing not given here
B12: RRAPGKLTCLASYCWLF WTGLL DYPTPQSHEP (peptide)
peptide: RRAPGKLTCLASYCWLFWTGLLDYPTPQSHEP
B13: RRAPGKLTCLASYACLFWTGIA-CONH2 (peptide)
peptide: RRAPGKLTCLASYACLFWTGIA-NH2
modifications: cysteine pairing not given here
B14: RRAPGKCTALASYAWCFWTGIA-COOH (peptide)
peptide: RRAPGKCTALASYAWCFWTGIA-OH
modifications: cysteine pairing not given here
B15: RRAPGCLTALASYCWLFWTGIA-COOH (peptide)
peptide: RRAPGCLTALASYCWLFWTGIA-OH
modifications: cysteine pairing not given here
B16: RRAPGKCTALASYCWLFWTGIA-CONH2 (peptide)
peptide: RRAPGKCTALASYCWLFWTGIA-NH2
modifications: cysteine pairing not given here
B17: RRAPGKCTALASYCWLFWTGIA-COOH (peptide)
peptide: RRAPGKCTALASYCWLFWTGIA-OH
modifications: cysteine pairing not given here
B18: RRAPGKLTCLASYAWCFWTGIA-COOH (peptide)
peptide: RRAPGKLTCLASYAWCFWTGIA-OH
modifications: cysteine pairing not given here
B19: RRAPGKLCALASYCWLFWTGIA-CONH2 (peptide)
peptide: RRAPGKLCALASYCWLFWTGIA-NH2
modifications: cysteine pairing not given here

Biological target: human Factor IXa (human, UniProt P00740 47-191; P00740 227-461)
Experiment: cell-based or functional assay

Row | Binder | EC50 [µM], FXa generation assay [µM]
1 | B1 | < 0.5
2 | B2 | > 20
3 | B3 | < 0.5
4 | B4 | > 1
5 | B5 | > 10
6 | B6 | > 10
7 | B7 | > 1
8 | B8 | > 10
9 | B9 | > 20
10 | B10 | > 10
11 | B11 | > 10
12 | B12 | < 0.5
13 | B13 | > 1
14 | B14 | > 1
15 | B15 | > 1
16 | B16 | > 1
17 | B17 | > 1
18 | B18 | > 1
19 | B19 | > 1
